1 molecule from doi:10.1101/2024.07.31.606000 (bioRxiv, 2024) can be followed below.

One assay addresses complement factor H (UniProt P08603 19-1231). Description: SPR.
In a further assay the target is complement C8 (UniProt P07357 31-584; P07358 55-591; P07360 21-202). Put plainly: SPR.
Sequence of complement C8 (P07357 31-584, chain 1 of 3): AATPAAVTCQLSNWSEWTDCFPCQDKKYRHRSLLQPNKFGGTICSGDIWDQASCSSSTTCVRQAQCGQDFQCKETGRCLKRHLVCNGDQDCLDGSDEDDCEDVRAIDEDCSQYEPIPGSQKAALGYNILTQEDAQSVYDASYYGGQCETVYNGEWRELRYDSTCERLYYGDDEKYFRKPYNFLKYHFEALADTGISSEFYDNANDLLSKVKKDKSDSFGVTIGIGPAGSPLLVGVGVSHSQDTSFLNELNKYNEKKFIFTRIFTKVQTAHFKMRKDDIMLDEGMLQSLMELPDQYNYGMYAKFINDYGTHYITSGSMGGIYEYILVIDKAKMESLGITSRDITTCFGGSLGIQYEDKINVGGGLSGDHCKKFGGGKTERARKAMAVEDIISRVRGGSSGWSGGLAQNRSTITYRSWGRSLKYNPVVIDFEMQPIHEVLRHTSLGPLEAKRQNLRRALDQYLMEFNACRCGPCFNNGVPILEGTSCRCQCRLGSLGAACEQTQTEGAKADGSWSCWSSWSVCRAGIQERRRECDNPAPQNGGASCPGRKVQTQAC
Sequence of complement C8 (P07358 55-591, chain 2 of 3): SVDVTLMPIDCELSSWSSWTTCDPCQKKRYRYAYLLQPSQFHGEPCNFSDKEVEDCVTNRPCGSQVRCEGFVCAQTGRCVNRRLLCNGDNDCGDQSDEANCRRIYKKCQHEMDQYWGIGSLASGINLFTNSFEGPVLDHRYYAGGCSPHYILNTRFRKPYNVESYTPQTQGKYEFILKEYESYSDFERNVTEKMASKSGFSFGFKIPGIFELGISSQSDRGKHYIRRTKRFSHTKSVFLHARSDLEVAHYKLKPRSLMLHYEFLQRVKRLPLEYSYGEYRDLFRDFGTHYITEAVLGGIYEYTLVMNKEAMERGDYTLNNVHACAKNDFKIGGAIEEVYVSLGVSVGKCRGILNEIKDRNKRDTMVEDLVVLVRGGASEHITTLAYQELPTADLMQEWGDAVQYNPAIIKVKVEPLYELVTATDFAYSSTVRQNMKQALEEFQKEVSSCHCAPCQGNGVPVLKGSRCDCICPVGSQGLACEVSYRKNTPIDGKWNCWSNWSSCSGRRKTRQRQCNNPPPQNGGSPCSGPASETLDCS
Sequence of complement C8 (P07360 21-202, chain 3 of 3): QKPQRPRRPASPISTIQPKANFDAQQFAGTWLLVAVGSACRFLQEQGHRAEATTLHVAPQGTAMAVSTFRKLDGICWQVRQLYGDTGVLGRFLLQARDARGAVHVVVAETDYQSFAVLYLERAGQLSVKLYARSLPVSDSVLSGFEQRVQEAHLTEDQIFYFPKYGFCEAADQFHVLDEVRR

Sequence of complement factor H (P08603 19-1231): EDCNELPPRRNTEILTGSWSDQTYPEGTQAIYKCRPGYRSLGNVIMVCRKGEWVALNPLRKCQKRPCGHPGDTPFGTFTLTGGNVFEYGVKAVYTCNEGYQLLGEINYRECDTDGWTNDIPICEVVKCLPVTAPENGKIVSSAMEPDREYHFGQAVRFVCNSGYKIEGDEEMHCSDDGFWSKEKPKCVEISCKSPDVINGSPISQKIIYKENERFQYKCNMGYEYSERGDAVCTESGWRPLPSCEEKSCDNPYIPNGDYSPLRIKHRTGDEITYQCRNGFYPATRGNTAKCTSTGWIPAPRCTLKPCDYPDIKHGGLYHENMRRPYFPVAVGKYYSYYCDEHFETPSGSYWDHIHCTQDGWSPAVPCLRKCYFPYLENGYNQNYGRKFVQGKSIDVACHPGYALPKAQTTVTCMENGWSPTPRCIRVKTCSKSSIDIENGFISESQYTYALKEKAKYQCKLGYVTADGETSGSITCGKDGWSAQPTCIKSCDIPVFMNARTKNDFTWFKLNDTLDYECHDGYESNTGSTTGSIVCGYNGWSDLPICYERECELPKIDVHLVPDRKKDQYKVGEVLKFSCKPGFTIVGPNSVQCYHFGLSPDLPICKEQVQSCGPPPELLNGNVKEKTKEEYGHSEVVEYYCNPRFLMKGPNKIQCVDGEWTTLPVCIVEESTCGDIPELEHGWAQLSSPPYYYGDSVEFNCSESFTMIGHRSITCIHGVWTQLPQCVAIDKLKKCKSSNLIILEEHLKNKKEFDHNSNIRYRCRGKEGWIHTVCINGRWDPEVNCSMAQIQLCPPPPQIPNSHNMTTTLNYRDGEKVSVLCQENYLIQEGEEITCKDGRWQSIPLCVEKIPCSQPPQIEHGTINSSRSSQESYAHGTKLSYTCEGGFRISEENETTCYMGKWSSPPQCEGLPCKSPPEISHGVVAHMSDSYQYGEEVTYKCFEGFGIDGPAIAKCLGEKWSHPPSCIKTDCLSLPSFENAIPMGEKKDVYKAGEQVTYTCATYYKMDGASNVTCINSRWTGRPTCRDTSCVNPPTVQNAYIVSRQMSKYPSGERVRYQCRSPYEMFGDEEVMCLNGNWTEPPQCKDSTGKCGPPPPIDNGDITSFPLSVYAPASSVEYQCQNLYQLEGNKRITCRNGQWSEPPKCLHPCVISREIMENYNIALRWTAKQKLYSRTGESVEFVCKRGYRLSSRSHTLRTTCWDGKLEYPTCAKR

B1: recombinant full-length thrombospondin-1 (natural protein)
chain: not shown
B1: the Kd with complement factor H was 203 nM; with complement C8, 311 nM.
